{"source": "the DeepSol protein solubility set", "data": [{"test": "soluble on expression in E. coli; label from the status in PepcDB or PDB records", "values": [{"sequence": "MGSDKIHHHHHHMKDLLNAFENKAPEIVFEWHDAETDATGWAVINSLRGGAAGGGTRMRKGLDKHEVVSLAKTMEIKFAVSGPHIGGAKSGINFDPADPRKNDVLNRWYKAVMPLLKSYYGTGGDLNVCEIKDVIPNTEEYGLWHPQEGIVNGHFHPSEELRIQKICQLRGGVTMPVVNPAYTPDPAKKYLVADLITGFGVSESVRHYYEIKGDSVAGKRVIVQGWGNVGGTAAYYLAANGAKVVGIIDRAAGLVSTEGLTFEQVKELLAKRVGNTLTGDNLLSAEDTQKLVWSVGADVFLPCAASRLVTREQVATLKDNGLGLIACGANVPFRDDNIFYGPTAEYADGVVDVIPDFIANCGMARAFNYLMSSKVDLDESAIFQDVSEVIRNALTESCAAATGKNHLLAASLKTVLHKLMH", "soluble on expression in E. coli": "not soluble"}, {"sequence": "MYHNSSQKRHWTFSSEEQLARLRADANRKFRCKAVANGKVLPNDPVFLEPHEEMTLCKYYEKRLLEFCSVFKPAMPRSVVGTACMYFKRFYLNNSVMEYHPRIIMLTCAFLACKVDEFNVSSPQFVGNLRESPLGQEKALEQILEYELLLIQQLNFHLIVHNPYRPFEGFLIDLKTRYPILENPEILRKTADDFLNRIALTDAYLLYTPSQIALTAILSSASRAGITMESYLSESLMLKENRTCLSQLLDIMKSMRNLVKKYEPPRSEEVAVLKQKLDRCHSAELALNVITKKRKGYEDDDYVSKKSKHEEEEWTDDDLVESL", "soluble on expression in E. coli": "soluble"}, {"sequence": "MVKGPGLYTEIGKKARDLLYKDHNSDQKFSITTFSPAGVAITSTGTKKGDLLLGDVAFQSRRKNITTDLKVCTDSTFLITATVDEAAPGLRSIFSFKVPDQNSGKVELQYLHEYAGISTSMGLTQNPTVNFSGVIGSNVLAVGTDVSFDTKSGNFTKINAGLSFTKEDLIASLTVNDKGDLLNASYYHIVNPLFNTAVGAEVSHKLSSKDSTITVGTQHSLDPLTSVKARVNSAGIASALIQHEWKPKSFFTISGEVDTKSIDKSAKVGLALALKP", "soluble on expression in E. coli": "soluble"}, {"sequence": "MAHHHHHHMSPAADTTHSTTKPCAPNRSSIPETCSRAPNGTRASAADEVTLLTAPQFAKSTKDTRSTARQQEEQLSDVLVLIRHGERQDHVDRAWKGNALLPLYDPPLSNAGRMQSFETALRYFALRQERKVEKRIRGTFTLFLVSPFHRCIETAAVMNVIAFEGRLPMYVEPFLSDWQQAKVFRTAPVLGGSYTTSGRPSVPGAKGDRLLFRPQVEALRVTLIPFLKTRAAEETELLAEYKIGAEVASAWTTLAEEWLNTHTALPVWTCAAATNVIEAKVASRSDGASDVRATSRKAAKGSQPSPRDASNEGYRGCGVAHPEGKSDLLRRCEQVMSTHFLRCAAVASDTMVPLAIQTAVAAERTTRLPKYFQIWAERPEENRESAGPPALLPPMHIMAITHADVVSTLLEVCCPKYHDKGAGYSVPYCSVTTLQRHNNYYRIPTAEERRRREASASTLAPAQNRGKCYAKKKGNTPSSKNQLMTPIRTRPLSPLSVEWNVEAVGSTDLLRTRIVIQYTK", "soluble on expression in E. coli": "soluble"}, {"sequence": "MERDERPPSGGGGGGGSAGFLEPPAALPPPPRNGFCQDELAELDPGTNGETDSLTLGQGHIPVSVPDDRAEQRTCLICGDRATGLHYGIISCEGCKGFFKRSICNKRVYRCSRDKNCVMSRKQRNRCQYCRLLKCLQMGMNRKAIREDGMPGGRNKSIGPVQISEEEIERIMSGQEFEEEANHWSNHGDSDHSSPGNRASESNQPSPGSTLSSSRSVELNGFMAFRDQYMGMSVPPHYQYIPHLFSYSGHSPLLPPQARSLDPQSYSLIHQLMSAEDLEPLGTPMLIEDGYAVTQAELFALLCRLADELLFRQIAWIKKLPFFCELSIKDYTCLLSSTWQELILLSSLTVYSKQIFGELADVTAKYSPSDEELHRFSDEGMEVIERLIYLYHKFHQLKVSNEEYACMKAINFLNQDIRGLTSASQLEQLNKRYWYICQDFTEYKYTHQPNRFPDLMMCLPEIRYIAGKMVNVPLEQLPLLFKVVLHSCKTSTVKE", "soluble on expression in E. coli": "not soluble"}, {"sequence": "MGSDKIHHHHHHMEIEAVEKEAIEKLSKISNVQELESFRIEFLGKKGKITGLMKNLKNLPPEERPAYGKRVNELREKIEKLFEEKRQQIQRILEQEKMEKMRIDVTVPGARRKLGHSHPVLKVMEEIERIFVSMGFDVVEGPEIETTWHNFDALNTPEWHPARDEHDSFYITDDLLLRTHTSPVQIRTMLERKPPIAIISPGKVYRRDYDATHLPMFHQVEGLHVDRDLSVAHLKFTLEEFARRMFGEGAKVRLRPSFFPFTEPSFEVDVYLSGYGWLEILGAGMVDPNVFLNVGYDPEEWTGYAFGMGVERIAMLKYGIADIREFVRNDVRFLSSY", "soluble on expression in E. coli": "not soluble"}, {"sequence": "MSLKGVSYTSEQKTRIVLEMLKEEETLAQIASRYQVTSQTLNSWKRQFLANASLAFEPAKALQEYKDQIQSKEQEIEELQKQLGKSVAEKEWLAKKLEGLDLSNKKALVESKPETISIARQCELLGISRSAYYYKPISLSRANLQIMHAIGEIATDNAEYGYRFIHQQLLEDGYRIGKERVLKYMRVMNLRALYPKKRKHTSIHNLEYKRYPYLLSQYHNSKKQVVVDRPGEVWSGDITYIRMNGGFMYLCAIIDWHSKAILAYKISNTMDASLAVDTLKEALQTHPAPRIFNSDQGSQYTSEEHTRLLEEHQIAISMNGKGRSIDNIAIERFFRTLKHSSIYINDYRTIKELKEGIKNYIHKYNFKRFHSSIEYRKPMNVYLEAQTVAEGHHHHHH", "soluble on expression in E. coli": "not soluble"}, {"sequence": "MQFEHLVQVNDRTLVDLPVLDRLQLWEGLVCRAREPQYFVVGLERFEILVDDGDRLHRRLYLPGLVVEDEVVLKAPDSAHYSIKPSAEVAGGSLDMTIEEPEPGSLFVRFAYCTRYLQPLGDELPYDAFVKQAYIAMDVETIATIRDRFGASAASGS", "soluble on expression in E. coli": "soluble"}, {"sequence": "MSLRVKTMVFTPFISMVGVTGSMGPFFCEFTLNGDLLPINYPATYTHELAHLLGISSEAEANFYAYQVCTRSQIKGIRFSGYFSILNHVLGNARRLLSEKEYADIINRIRPEIIELAKKNQEYWMAKYSPLIGDVQNWIYDLYLKGNKIESGRKNYSEVIGLLISYQVWKAKTASDEGHHHHHH", "soluble on expression in E. coli": "not soluble"}, {"sequence": "MGSDKIHHHHHHMLPKYEIIKRDIIEKIESGEFSTGEKVYSEGDLKRKYNVSNTTVVKALNDLVNEGYLIRRQGEGTFVRKNLKHRKVFFSEKLSMSNNEKQKSVEETITLVSEEFTDKEIAQILGDKSGSKALLKLTQIALTNDFPWKIQNRYLFADKLRDDSVKRLIEGASLSDELGLQGNMANLPMTMEVSTILLTKDSDELEPLRIIRKSFGEEDSFSLFNIKRLIRGNDGVPIEYSQSFILSDFYQIEIISE", "soluble on expression in E. coli": "not soluble"}, {"sequence": "MGSDKIHHHHHHMEFHEIDRMAKKLGADIFGVADLDLLREYETFPENLLDSFDFGISIGVKLPDPLFDMLPDSRNLYSRYYVVANDMLDRIAFEISRAIESEGYEALPIPASKVLSDLHWRSYVSHKAIARAAGVGWVGRNLLLITPQFGPRVRLASVLTDMPLKAGKPARNRCGVCRECIDSCITQALRYSEFDDYPERDEVFEVDKCAAKLKEFASNPDIGTMVCGICIKVCPWGKLGNKTKGN", "soluble on expression in E. coli": "not soluble"}, {"sequence": "MKEACSSSSHVPVSDSKYILKSELLSLLKTYNCYHEGRSFQLRHREEEGTLIIEGLLNIAWGLRRPIRLQMQDDRERVHLPSATWVPERLSYLQKEASPQDSKVPTEEPGTQPANKAEVSGDSSGALEGEEEEVPQLMRTKSDASCIIQRRSKSRAPSEAQKIRRHRFSINGHFYNHKVKSPSALSWALKLRVQELFPSTEERAPNIQHSSHSSIR", "soluble on expression in E. coli": "soluble"}, {"sequence": "MGSDKIHHHHHHMEMRFFVLGAGSWGTVFAQMLHENGEEVILWARRKEIVDLINVSHTSPYVEESKITVRATNDLEEIKKEDILVIAIPVQYIREHLLRLPVKPSMVLNLSKGIEIKTGKRVSEIVEEILGCPYAVLSGPSHAEEVAKKLPTAVTLAGENSKELQKRISTEYFRVYTCEDVVGVEIAGALKNVIAIAAGILDGFGGWDNAKAALETRGIYEIARFGMFFGADQKTFMGLAGIGDLMVTCNSRYSRNRRFGELIARGFNPLKLLESSNQVVEGAFTVKAVMKIAKENKIDMPISEEVYRVVYEGKPPLQSMRDLMRRSLKDEFWASVVDSSL", "soluble on expression in E. coli": "not soluble"}, {"sequence": "MGSDKIHHHHHHMGENMKILISVCGEGFGHTTRCVAIGEALKNDYEISYIAYGKSKNFIEKYGFKVFETFPEIKLKGKDGKFDITSSILNKEYSPKKAIRREINIIREYNPDLIISDCKYSTVVAAKLLKKPVICISNQNYTRYKLKTDLIVYPTMKALNIINERCERFIVPDFPLPYTICEYNLKIIKNMEFIGPLIRYDVDDVDNYGEDYILSVIGGFEYRYKILEELGKIALKNNLNVKLVCGSYEVAKKLMRDLNLNSYKNENVEIIPITTNMKELIKNAELIVSHGGHSTIMEALSFGKPLIVIPDLDHPEQGNNAKKVHDLGCGIALSYKELYRLEEAILDIRNMKMYKRNASKMKELAKKYDGKKNIKKIIDEFFETRKNIRKYYLTDRIANKLINKFKLKIR", "soluble on expression in E. coli": "not soluble"}, {"sequence": "GPGSMSARPSVSVYSASSDSVVGTCPLPAVFTAPIRSDIVKFVHTNMAKNSRQAYAVNRLSGMNHSAHSWGTGRAVARIPRISGGGTSTSGAGAFGNMCRGGRMFAPTKIFRRWHRKINLHQKRFAVVSALAASSVPSLVMSRGHQIGNVPEVPLVVEDSIQGYEKTKEAMAFLKAIAAIDDVNRVNDSREIRAGRGKMRNRRYVARRGPMLVMPNNKGTRAFRNIFGLDLANVSALNLLHLAPGGHVGRFVIWTQSAFEQLDKIFGTFTEASAVKKGFTLPAPMLTNTDVTRIMQSEEVRRVLKPKKLQAKKASRFQTPTNGMKNRRLRLRLNPYVKRETAAAKGMRNVANRDARRKAKLARVTKAKKAATKSAKQ", "soluble on expression in E. coli": "not soluble"}, {"sequence": "MGHHHHHHSHIAELYGAVLWGETVHLFMEAGEGGSVLEKLESCGPMREFEIIWVTKHVLKGLDFLHSKKVIHHDIKPSNIVFMSTKAVLVDFGLSVQMTEDVYFPKDLRGTEIYMSPEVILCRGHSTKADIYSLGATLIHMQTGTPPWVKRYPRSAYPSYLYIIHKQAPPLEDIADDCSPGMRELIEASLER", "soluble on expression in E. coli": "not soluble"}, {"sequence": "MSEEHIAVTRFREYLRVNTEQPNPDYVACRDFLFKYADEVGIERKAVETAPGVYFVIMTIPGSQPELPSIMLYSHTDVVPTFREHWTHDPYSAFKDEDGNIFARGAQDTKCLGVQHVEAFRNLFAKGAKQWKRTIHVVWGPDEETGHINGMKGFVETNEFKKLNIGFSLDEGHASENGVYLTFYAERVTWWLKVTAPGNPGHGSQFMENTAMEKIERFLASARAFRNEQKELLEKNPTWALGDVTTLNVNILKGGVQFNVIPEKFEAYVDIRLTPNQDFGEIRAKLDQWVKDAGEGVTYEFSQHSDYKPVSPHTRDDPFWAAFEDSLKQENCEFTTEVCVGSTDSRFVRKAGVPAINFSPMINTPVRAHAHNEFLNEKVFLRGVEIFETLINNLGNV", "soluble on expression in E. coli": "not soluble"}, {"sequence": "MAGQISPTRSALLASKASLKTANGGADLLKRKRDALIGEFFALVKDALAAREQLSSVSKGAYTSLFGAKAWDSPEAVESLSLAGTGDYAVDMQIESIYGVKVPKINIPERAAQADFSPINVGARTIQASNDFGGVLEAIVKVAATETKLRRIGEEIKKTSRRVNALEQVVIPGIHDDIRFIRSVLDQREREAGYTQKKIKAKIEGKNKEAREAAAATSHGSAADAAALEHHHHHH", "soluble on expression in E. coli": "not soluble"}, {"sequence": "MSQFSFTKMHGLGNSYIYVNMFEEQIPEEDLALVAEKVSNINTGIGADGMILICPSDVAPVKMRMFNNDGSEGKSCGNGLRCVAKYAYEHKLVEDTVFTIETLAGIVTAEVTVEEGKVTLAKIDMGAPRLTRAEIPMLGEGETPFIRENFLYNNHRYAFTAVSMGNPHAVIFVDDVEQAPLTTLGPVLETHEMFPERVNVEFIEILNEEEMNFRVWERGSGVTQACGTGACAAVVASILNGKMERGKEITVHLAGGDLMIAWTEEGNVLMKGPAEVICRGVYEYKIEA", "soluble on expression in E. coli": "not soluble"}]}]}
